Results: CN101443359A (GENENTECH INC, dated 2009)

Key:
重组人EGFL7蛋白 = biological target: T1, 重组人EGFL7蛋白 (human, UniProt Q9UHF1 24-273, limits assumed); assay: SPR, BIAcore 3000, room temperature, polyHis-tagged EGFL7 injected, 1:1 model, mAb stock in 50mM Tris/125mM NaCl
T1 construct: also called hEGFL7; 带polyHis标签的EGFL7
T1 sequence (looked up): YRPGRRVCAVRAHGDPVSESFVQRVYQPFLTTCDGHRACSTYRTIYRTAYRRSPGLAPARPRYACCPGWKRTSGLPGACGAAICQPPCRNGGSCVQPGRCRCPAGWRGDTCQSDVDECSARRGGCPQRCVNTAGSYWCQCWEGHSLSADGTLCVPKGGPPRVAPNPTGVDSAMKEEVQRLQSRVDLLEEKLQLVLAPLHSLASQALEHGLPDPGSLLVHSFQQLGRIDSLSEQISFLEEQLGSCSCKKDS

重组小鼠EGFL7蛋白 = biological target: T2, 重组小鼠EGFL7蛋白 (mouse, UniProt Q9QXT5 22-275, limits assumed); assay: as above
T2 construct: also called mEGFL7; 带polyHis标签的EGFL7
T2 sequence (looked up): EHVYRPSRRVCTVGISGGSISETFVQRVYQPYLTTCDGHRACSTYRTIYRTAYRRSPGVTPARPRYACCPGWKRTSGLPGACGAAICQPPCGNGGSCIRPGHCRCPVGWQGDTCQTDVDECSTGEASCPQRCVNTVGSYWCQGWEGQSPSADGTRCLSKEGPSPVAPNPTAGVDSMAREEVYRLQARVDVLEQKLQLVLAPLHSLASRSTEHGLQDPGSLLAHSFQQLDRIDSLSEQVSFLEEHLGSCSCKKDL

B1: 抗EGFL7鼠单抗4F11.1.8 (antibody, V domains shown)
VH: QIQLVQSGPELKKPGETVKISCKASGHTFTTYGMSWVKQAPGKGLKWMGWINTHSGVPTYADDFKGRFAFSLETSASTAHLQINNLKNEDTATYFCARLGSSAVDYWGQGTTVTVSS
VL: DIVLTQSPASLAVSLGQRATISCKASQSVDYDGDSYMSWYQQKPGQPPKLLIYGASNLESGIPARFSGSGSGTDFTLNIHPVEEEDAATYYCQQNNEDPYTFGGGTKVEIKR
notes: Hybridoma deposit PTA-7343
- Kd (重组人EGFL7蛋白): 0.473 nM
- Kd (重组小鼠EGFL7蛋白): 0.756 nM
